Source: patent publication US20200000897A1 (published 2020)

Molecular target: T1, HLA-A*03:01 (human)
T1 construct: MHC class I monomer first loaded with a UV-sensitive peptide that is cleaved by UV irradiation and exchanged for the test peptide; captured on streptavidin plates; also called peptide-receptive MHC molecules
Assay: UV-ligand exchange, anti-b2m ELISA; peptide exchange yield grade (>10% +, >20% ++, >50% +++, >75% ++++)
Text: Candidate peptides for T cell based therapies according to the present invention were further tested for their MHC binding capacity (affinity). The individual peptide-MHC complexes were produced by UV-ligand exchange, where a UV-sensitive peptide is cleaved upon UV-irradiation and exchanged with the peptide of interest as analyzed. Only peptide candidates that can effectively bind and stabilize the peptide-receptive MHC molecules prevent dissociation of the MHC complexes. To determine the yield of the exchange reaction, an ELISA was performed based on the detection of the light chain (β2m) of stabilized MHC complexes. The assay was performed as generally described in Rodenko et al. (Rodenko et al., 2006)
96 well MAXISorp plates (NUNC) were coated over night with 2 ug/ml streptavidin in PBS at room temperature, washed 4× and blocked forl h at 37° C. in 2% BSA containing blocking buffer. Refolded HLA-A*02:01/MLA-001 monomers served as standards, covering the range of 15-500 ng/ml. Peptide-MHC monomers of the UV-exchange reaction were diluted 100-fold in blocking buffer. Samples were incubated for 1 h at 37° C., washed four times, incubated with 2 ug/ml HRP conjugated anti-β2m for 1 h at 37° C., washed again and detected with TMB solution that is stopped with […]. Absorption was measured at 450 nm.

| peptide exchange yield [%] | Binder |
| --- | --- |
| 50 to 75 | KIWQNLRLK |
| > 75 | AVCGGVLVH |
| > 75 | RSYSHVVLK |
| > 75 | IVFPDVISK |
| 50 to 75 | IVYPSATDKTK |
| 50 to 75 | VSLGTPIMK |
| 50 to 75 | KVMPKQTWK |
| 50 to 75 | KAFNQSSIFTK |
| > 75 | KVADFGLARLLK |
| > 75 | GISNPITTSK |
| > 75 | SLYNLGGAK |
| 50 to 75 | LLPTVLIKK |
| > 75 | RLKMAQESVSK |
| 50 to 75 | QVRDTLKIVFK |
| 20 to 50 | ILDSSLLK |
| > 75 | SLYDGFLSY |
| > 75 | KLETGVVKK |
| 50 to 75 | KVLEPPLGAR |
| 50 to 75 | RLSPGPRAY |
| 50 to 75 | SIINFKPLTY |
| 50 to 75 | RVAEEILIK |
| 50 to 75 | RLFPGLYLGY |
| 50 to 75 | QLGYQAAVLK |

| peptide exchange yield [%] | Binder |
| --- | --- |
| > 75 | AISSTVLGK |
| > 75 | KVYIPPIINK |
| 20 to 50 | SSLPRAFQK |
| > 75 | RLPLRVVKH |
| > 75 | RSNPYFQNK |
| > 75 | ALAAKLEVK |
| > 75 | RSKWSNVFK |
| > 75 | RLYEMILQR |
| 50 to 75 | RVSSVKLISK |
| > 75 | KTGWFTLLY |
| 50 to 75 | RVYEGDGRNSLK |
| > 75 | IVAFIPLSNK |
| > 75 | RTIDRSVFK |
| > 75 | RSYVPLAH |
| > 75 | TMWQIPQEFVK |
| > 75 | RIVDYLLEK |
| > 75 | AVAQKLLSH |
| > 75 | KTWAHCMSY |
| > 75 | ALPRQAFHSK |
| > 75 | QICLPAIYK |
| > 75 | RLAVSTRGK |
| > 75 | SGSTLECILYK |
| > 75 | KIFQGQINK |

| peptide exchange yield [%] | Binder |
| --- | --- |
| > 75 | RVLPPLTRILK |
| > 75 | KLYPTHACR |
| 50 to 75 | EGLFLLGCVK |
| 20 to 50 | KVFEEPEDFLK |
| 50 to 75 | KLSLSHKK |
| > 75 | VAFIPLSNK |
| > 75 | AVYNYPEGAAY |
| > 75 | RVYPRPPSKTY |
| > 75 | KTCQVSGLLY |
| 50 to 75 | AVIGALLAVGATK |
| > 75 | KILDRVLSRY |
| > 75 | RVWLGKHYK |
| > 75 | RLYYSFKNITK |
| > 75 | RVYPRPPSK |
| > 75 | ALERKFRQK |
| 50 to 75 | KVLSILSRLK |
| > 75 | KLQAKVLQY |
| > 75 | STLECILYK |
| 20 to 50 | SSLAELIAK |
| > 75 | KLFTSVFGVGLK |
| > 75 | SVLDKLLFH |
